The labels stand for the following.
B1: yeast single chain H2A-H2B (other)
chain: RKETYSSYIYKVLKQTHPDTGISQKSMSILNSFVNDIFERIATEASKLAAYNKKSTISAREIQTAVRLILPGELAKHAVSEGTRAVTKYSSSTQAQSRSAKAGLTFPVGRVHRLLRRGNYAQRIGSGAPVYLTAVLEYLAAEILELAGNAARDNKKTRIIPRHLQLAIRNDDELNKLLGNVTIAQGGVLPNI
modifications: Limits and order (H2B then H2A) are taken by homology from scZB in 2JSS/6AE8. The paper's H2B numbers are mature (+1 on precursor) and its H2A numbers are precursor. H2A.1 paralogue assumed.
B2: middle and C-terminal region of Chz1 (Chz1 64-153) (domain or fragment, S. cerevisiae (budding yeast), UniProt P40019 64-153, looked up)
chain: TVEDSESDMDDAKLDALMGNEGEEEEDDLAEIDTSNIITSGRRTRGKVIDYKKTAEELDKKEPSTGSKDDVGYGEKEEDDEDEEDDDFKE
notes: Chz1, budding yeast, residues 64-153; only residues 142-153 are seen in the crystal structure; also called Chz1-MC; Chz1-MC WT; source: E. coli BL21-CodonPLUS(DE3)-RIPL, purified (Ni-NTA, HiTrap Q)
B3: single chain H2A-H2B with H2A P50A (other)
chain: RKETYSSYIYKVLKQTHPDTGISQKSMSILNSFVNDIFERIATEASKLAAYNKKSTISAREIQTAVRLILPGELAKHAVSEGTRAVTKYSSSTQAQSRSAKAGLTFPVGRVHRLLRRGNYAQRIGSGAAVYLTAVLEYLAAEILELAGNAARDNKKTRIIPRHLQLAIRNDDELNKLLGNVTIAQGGVLPNI
B4: single chain H2A-H2B with H2A N91G (other)
chain: MRKETYSSYIYKVLKQTHPDTGISQKSMSILNSFVNDIFERIATEASKLAAYNKKSTISAREIQTAVRLILPGELAKHAVSEGTRAVTKYSSSTQAQSRSAKAGLTFPVGRVHRLLRRGNYAQRIGSGAPVYLTAVLEYLAAEILELAGNAARDNKKTRIIPRHLQLAIRGDDELNKLLGNVTIAQGGVLPNI
B5: single chain H2A-H2B with H2A NKLGNV→DSIRA (other)
chain: RKETYSSYIYKVLKQTHPDTGISQKSMSILNSFVNDIFERIATEASKLAAYNKKSTISAREIQTAVRLILPGELAKHAVSEGTRAVTKYSSSTQAQSRSAKAGLTFPVGRVHRLLRRGNYAQRIGSGAPVYLTAVLEYLAAEILELAGNAARDNKKTRIIPRHLQLAIRNDDELDSLIRATIAQGGVLPNI
B6: middle region of Chz1 (Chz1 64-124) (domain or fragment, S. cerevisiae (budding yeast), UniProt P40019 64-124, looked up)
chain: TVEDSESDMDDAKLDALMGNEGEEEEDDLAEIDTSNIITSGRRTRGKVIDYKKTAEELDKK
notes: Chz1, budding yeast, residues 64-124; also called Chz1-M; source: E. coli BL21-CodonPLUS(DE3)-RIPL, purified (Ni-NTA, HiTrap Q)

Settings in all cases: both partners purified
The target of test [1] is T1, Swc2-Z, the 1–136 segment of the Swc2 subunit of the SWR1 complex (yeast).
T1 construct: SWR complex protein 2 (Swc2), subunit of the yeast SWR1 complex, residues 1-136
As to the kind of experiment: ITC; 0.2 M NaCl (Table 1); Swc2-Z or Chz1-M injected into single-chain histone dimers; otherwise as the ITC methods (25°C, 20 mM MES pH 6.0). In general terms: Isothermal titration calorimetry measures the heat released or taken up as one component is titrated into another.

Test [2] deals with B6. The test is described as above.
Test [3] addresses B2. As to the kind of experiment: ITC; MicroCal VP-ITC, 25°C, 20 mM MES (pH 6.0), 0.5 M NaCl; chaperone (50 or 150 μM) injected into histones (5 μM scZB or 15 μM scAB and mutants) in the cell; one-site fit.
The target of test [4] is B6. Described as above.
In test [5] the target is B3. The test is described as above.
In test [6] the target is B5. The description is as above.
Test [7] has as its target B4. The description is as above.
The target in test [8] is B1. The test is described as above.
Test [9] deals with B1. The experiment in a line: ITC; 0.2 M NaCl (Table 1); Swc2-Z or Chz1-M injected into single-chain histone dimers; otherwise as the ITC methods (25°C, 20 mM MES pH 6.0).

Broadly, the Kd is the constant that tells how readily two partners part at equilibrium. In general, stoichiometry N refers to a count of units in the complex or per binding partner.

As for B1, the dissociation constant (Kd) in [1] came to 200 ± 70 nM; in test [2], 300 ± 2 nM; in test [3] it was 5020 ± 420 nM; in test [4], 7.87 ± 0.35 µM.

Regarding B2, the “stoichiometry N” value is 1 sites in [5], 0.9 sites in test [6], 1 sites in [7] and 0.9 sites in [8].

In [3], B3 returned a Kd of 530 ± 40 nM.

The molecule B4 returned a dissociation constant (Kd) in [3] of 420 ± 20 nM.

In test [3], B5 registered a Kd of 5080 ± 180 nM.

Take B6: the “stoichiometry N” value in [9] worked out at 1 sites; in [8], 0.7 sites.

Values taken from article PMC6544321, “Structural insights into histone chaperone Chz1-mediated H2A.Z recognition and histone replacement” (PLoS Biology, 2019).
